For assay [1], the target named is TK_NBD_K69A-B (Thermus thermophilus) (UniProt Q56235).
Assay [2] deals with TK_NBD_T195A-B (Thermus thermophilus) (UniProt Q56235).
For assay [3], the target named is TK_NBD-B (Thermus thermophilus) (UniProt Q56235).
Target sequence in this assay (Q56235 other isoform, or with tags, fused parts or gaps): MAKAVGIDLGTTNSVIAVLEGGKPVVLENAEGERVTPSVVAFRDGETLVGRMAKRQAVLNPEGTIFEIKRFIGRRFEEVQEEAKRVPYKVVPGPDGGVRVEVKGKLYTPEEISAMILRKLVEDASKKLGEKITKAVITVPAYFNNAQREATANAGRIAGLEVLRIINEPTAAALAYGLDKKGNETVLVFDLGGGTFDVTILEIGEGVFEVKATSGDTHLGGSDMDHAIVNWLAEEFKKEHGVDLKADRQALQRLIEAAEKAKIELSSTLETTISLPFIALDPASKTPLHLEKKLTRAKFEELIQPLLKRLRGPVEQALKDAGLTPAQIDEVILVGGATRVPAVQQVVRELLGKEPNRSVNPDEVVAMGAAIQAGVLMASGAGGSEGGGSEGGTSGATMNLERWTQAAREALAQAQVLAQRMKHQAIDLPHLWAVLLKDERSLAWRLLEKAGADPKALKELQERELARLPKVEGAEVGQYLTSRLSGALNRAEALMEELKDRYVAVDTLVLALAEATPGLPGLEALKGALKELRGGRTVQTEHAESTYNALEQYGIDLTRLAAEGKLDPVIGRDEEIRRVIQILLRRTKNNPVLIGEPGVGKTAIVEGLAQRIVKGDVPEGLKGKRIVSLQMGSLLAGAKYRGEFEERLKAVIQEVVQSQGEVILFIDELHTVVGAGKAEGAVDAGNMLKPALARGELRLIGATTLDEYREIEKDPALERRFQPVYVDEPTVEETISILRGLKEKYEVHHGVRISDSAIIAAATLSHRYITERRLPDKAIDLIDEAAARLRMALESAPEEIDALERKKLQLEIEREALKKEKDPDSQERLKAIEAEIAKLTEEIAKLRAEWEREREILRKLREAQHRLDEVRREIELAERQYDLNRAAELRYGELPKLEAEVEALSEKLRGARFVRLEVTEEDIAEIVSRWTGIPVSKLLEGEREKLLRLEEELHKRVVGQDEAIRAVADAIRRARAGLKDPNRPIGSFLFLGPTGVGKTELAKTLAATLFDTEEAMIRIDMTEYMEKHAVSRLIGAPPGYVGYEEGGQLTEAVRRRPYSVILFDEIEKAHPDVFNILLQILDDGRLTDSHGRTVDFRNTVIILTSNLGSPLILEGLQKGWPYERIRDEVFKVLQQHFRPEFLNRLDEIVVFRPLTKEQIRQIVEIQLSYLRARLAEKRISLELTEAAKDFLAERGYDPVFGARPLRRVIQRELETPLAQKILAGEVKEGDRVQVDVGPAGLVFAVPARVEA
The target of assay [4] is TK_NBD_K69A-B (Thermus thermophilus) (UniProt Q56235). The source holds these as a separate data set.
The target of assay [5] is TK_NBD_T195A-B (Thermus thermophilus) (UniProt Q56235). The source holds these as a separate data set.
For assay [6], the target named is TK_NBD-B (Thermus thermophilus) (UniProt Q56235). This is another data set of the same source.
Target sequence in this assay (Q56235 other isoform, or with tags, fused parts or gaps): as above
The target of assay [7] is TK_ΔSBDα_K69A-B (Thermus thermophilus) (UniProt Q56235).
Assay [8] addresses TK-B (Thermus thermophilus) (UniProt Q56235).
Assay [9] concerns the target TK_NBD-B (Thermus thermophilus) (UniProt Q56235). The source holds these as a separate data set.
The target of assay [10] is TK_ΔSBDα_T195A-B (Thermus thermophilus) (UniProt Q56235).
A further assay addresses ClpB (Escherichia coli) (UniProt P63284). The note with it: cited from earlier work.

The Kd is the free concentration of one partner at which half of the binding sites on the other are occupied at equilibrium, for simple one-to-one binding.

Chain of Thermus thermophilus DnaK (TDnaK) (Q56235 whole entry): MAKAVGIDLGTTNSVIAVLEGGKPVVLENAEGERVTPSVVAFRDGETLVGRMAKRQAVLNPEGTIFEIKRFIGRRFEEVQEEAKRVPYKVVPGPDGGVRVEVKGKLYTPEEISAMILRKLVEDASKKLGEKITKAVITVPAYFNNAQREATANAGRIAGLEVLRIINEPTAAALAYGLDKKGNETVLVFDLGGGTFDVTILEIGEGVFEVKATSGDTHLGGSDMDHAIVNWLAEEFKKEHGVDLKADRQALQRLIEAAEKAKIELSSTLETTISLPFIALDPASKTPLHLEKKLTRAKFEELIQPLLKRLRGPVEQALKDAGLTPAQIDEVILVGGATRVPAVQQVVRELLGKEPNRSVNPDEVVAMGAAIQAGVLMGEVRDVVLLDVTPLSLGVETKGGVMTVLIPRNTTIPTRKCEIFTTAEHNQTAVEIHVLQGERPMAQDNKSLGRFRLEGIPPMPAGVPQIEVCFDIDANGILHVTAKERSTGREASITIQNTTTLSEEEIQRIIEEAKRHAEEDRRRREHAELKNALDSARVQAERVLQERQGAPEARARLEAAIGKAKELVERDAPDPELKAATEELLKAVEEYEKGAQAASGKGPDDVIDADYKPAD
Chain of TK_NBD_K69A-B (Thermus thermophilus) (Q56235 other isoform, or with tags, fused parts or gaps K69A | K69A): as the sequence (Q56235 other isoform, or with tags, fused parts or gaps) above, with K69A counted along it
Chain of TK_NBD_T195A-B (Thermus thermophilus) (Q56235 other isoform, or with tags, fused parts or gaps T195A | T195A): as the sequence (Q56235 other isoform, or with tags, fused parts or gaps) above, with T195A counted along it
Chain of ClpB (Escherichia coli) (P63284 whole entry): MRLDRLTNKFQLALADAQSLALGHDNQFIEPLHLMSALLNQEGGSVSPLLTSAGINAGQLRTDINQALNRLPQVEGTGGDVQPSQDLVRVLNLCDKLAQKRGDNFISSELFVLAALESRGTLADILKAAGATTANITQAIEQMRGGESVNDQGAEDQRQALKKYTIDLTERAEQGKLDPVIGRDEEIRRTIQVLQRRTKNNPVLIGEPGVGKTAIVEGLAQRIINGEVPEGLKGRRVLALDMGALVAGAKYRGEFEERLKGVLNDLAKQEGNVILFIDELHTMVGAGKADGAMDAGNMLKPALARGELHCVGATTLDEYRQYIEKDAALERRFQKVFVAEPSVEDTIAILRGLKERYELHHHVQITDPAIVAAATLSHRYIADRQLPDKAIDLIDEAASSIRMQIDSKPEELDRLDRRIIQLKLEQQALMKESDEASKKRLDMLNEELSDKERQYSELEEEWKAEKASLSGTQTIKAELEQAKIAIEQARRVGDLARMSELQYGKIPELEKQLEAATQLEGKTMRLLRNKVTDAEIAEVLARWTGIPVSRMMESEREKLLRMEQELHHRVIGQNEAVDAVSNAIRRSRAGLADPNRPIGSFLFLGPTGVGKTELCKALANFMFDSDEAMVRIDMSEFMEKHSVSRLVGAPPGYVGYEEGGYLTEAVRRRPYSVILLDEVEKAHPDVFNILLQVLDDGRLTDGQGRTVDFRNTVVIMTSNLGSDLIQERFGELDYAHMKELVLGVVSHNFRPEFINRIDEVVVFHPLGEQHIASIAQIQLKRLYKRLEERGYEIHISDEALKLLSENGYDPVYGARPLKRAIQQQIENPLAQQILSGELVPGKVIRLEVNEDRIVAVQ
Chain of DnaK (P0A6Y8 2-638): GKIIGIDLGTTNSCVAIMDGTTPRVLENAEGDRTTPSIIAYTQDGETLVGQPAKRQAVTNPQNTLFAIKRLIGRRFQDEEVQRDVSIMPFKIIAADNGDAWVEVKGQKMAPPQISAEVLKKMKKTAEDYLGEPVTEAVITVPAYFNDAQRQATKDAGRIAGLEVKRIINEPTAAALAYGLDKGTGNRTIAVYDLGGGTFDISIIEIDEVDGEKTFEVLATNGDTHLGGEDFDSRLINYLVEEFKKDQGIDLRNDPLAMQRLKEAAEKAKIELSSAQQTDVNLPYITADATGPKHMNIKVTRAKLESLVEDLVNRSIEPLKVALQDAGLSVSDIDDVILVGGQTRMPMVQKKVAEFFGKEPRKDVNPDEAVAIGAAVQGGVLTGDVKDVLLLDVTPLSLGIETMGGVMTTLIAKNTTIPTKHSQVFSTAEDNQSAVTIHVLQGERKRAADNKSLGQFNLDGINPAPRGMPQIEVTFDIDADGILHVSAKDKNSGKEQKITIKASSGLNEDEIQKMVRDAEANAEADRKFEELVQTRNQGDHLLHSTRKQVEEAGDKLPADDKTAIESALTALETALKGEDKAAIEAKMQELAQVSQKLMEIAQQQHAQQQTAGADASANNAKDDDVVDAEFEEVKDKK

As to “Thermus thermophilus DnaK (TDnaK) (from UniProt Q56235 1-615) (natural protein)”, the reactivation of heat-aggregated α-glucosidase by the fusion with unfused TDnaK, TDnaJ, TGrpE (TKJE) and 5 mM ATP, 55 °C, 90 min in [1], in [2] and in [3] was less than 2% in each case. Also, the rate of reactivation of heat-aggregated EYFP by the fusion with unfused TDnaK, TDnaJ, TGrpE (TKJE) and 5 mM ATP, 55 °C in assay [4], in assay [5] and in assay [6] was less than 0.1 % min^-1 each time.
The substance “TK_ΔSBDα_K69A-B (from UniProt Q56235 1-501; Q9RA63 1-854)” displayed an ATPase activity of the fusion, 55 °C, 3 mM ATP, against TK K69A-B (fold of TK K69A-B) in [7] of 1.5.
In assay [8], “TK-B (from UniProt Q56235 1-615; Q9RA63 1-854)” showed an ATPase activity of the fusion (TClpB portion stimulated by the fused TDnaK portion), 55 °C, 3 mM ATP, against unfused TClpB (times that of TClpB) of 5.
As for “TK_NBD-B (from UniProt Q56235 1-377; Q9RA63 1-854)”, the ATPase activity of the fusion (TClpB portion stimulated by the fused NBD of TDnaK), 55 °C, 3 mM ATP, against TK-B in assay [9] was 2 fold of TK-B.
The substance “TK_ΔSBDα_T195A-B (from UniProt Q56235 1-501; Q9RA63 1-854)” returned an ATPase stimulation of the fusion, 55 °C, 3 mM ATP in [10] of 2 fold.
Take DnaK (from UniProt P0A6Y8): the Kd with ClpB (Escherichia coli) is 25 µM.

The values above are taken from PMC5561102, “Fusion protein analysis reveals the precise regulation between Hsp70 and Hsp100 during protein disaggregation” (Scientific Reports, 2017).
